Article PMC3737541, “Structure-function analysis of the EF-hand protein centrin-2 for its intracellular localization and nucleotide excision repair” (Nucleic Acids Research, 2013)
Residue numbers refer to the chain shown, from its start.

How the values were obtained:
[1] = biological target: T1, FLAG-XPC/RAD23B-His complex (human, UniProt Q01831 1-940; P54727 1-409); assay: pull-down; purified GST-centrin-2 (WT, N or C) incubated with FLAG-XPC/RAD23B-His, pulled down with anti-FLAG antibody beads; immunoblot; conditions: both partners purified
T1 construct: XPC protein, human; called full-length / intact XPC; RAD23B, one of the two mammalian homologs of S. cerevisiae RAD23; also called XPC/RAD23B complex; control heterodimer
T1 sequence (looked up) 1: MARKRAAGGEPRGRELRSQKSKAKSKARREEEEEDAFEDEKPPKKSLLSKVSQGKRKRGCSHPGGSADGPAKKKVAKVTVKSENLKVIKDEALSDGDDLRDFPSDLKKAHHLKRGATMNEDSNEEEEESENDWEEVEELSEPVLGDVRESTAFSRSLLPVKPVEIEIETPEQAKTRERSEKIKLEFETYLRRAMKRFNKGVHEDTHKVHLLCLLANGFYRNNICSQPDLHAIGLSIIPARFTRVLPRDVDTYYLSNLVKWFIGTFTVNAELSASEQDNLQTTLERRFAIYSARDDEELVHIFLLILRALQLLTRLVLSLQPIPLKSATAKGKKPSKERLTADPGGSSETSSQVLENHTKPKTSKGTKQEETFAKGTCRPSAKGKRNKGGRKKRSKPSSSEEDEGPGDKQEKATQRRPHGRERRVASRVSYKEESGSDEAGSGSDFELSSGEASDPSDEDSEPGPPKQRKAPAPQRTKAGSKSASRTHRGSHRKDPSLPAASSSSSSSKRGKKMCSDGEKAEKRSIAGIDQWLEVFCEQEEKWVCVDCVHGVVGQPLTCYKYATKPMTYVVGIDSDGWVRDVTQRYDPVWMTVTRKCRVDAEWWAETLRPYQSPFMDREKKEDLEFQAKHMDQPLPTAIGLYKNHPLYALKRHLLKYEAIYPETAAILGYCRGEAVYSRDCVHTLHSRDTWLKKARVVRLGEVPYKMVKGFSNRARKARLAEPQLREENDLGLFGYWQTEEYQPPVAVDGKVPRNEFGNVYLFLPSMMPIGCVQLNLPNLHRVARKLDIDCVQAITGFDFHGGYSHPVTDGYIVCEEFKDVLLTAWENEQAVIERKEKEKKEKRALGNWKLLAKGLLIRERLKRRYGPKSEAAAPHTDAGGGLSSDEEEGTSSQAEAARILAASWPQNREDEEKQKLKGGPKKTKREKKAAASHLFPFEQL
T1 sequence (looked up) 2: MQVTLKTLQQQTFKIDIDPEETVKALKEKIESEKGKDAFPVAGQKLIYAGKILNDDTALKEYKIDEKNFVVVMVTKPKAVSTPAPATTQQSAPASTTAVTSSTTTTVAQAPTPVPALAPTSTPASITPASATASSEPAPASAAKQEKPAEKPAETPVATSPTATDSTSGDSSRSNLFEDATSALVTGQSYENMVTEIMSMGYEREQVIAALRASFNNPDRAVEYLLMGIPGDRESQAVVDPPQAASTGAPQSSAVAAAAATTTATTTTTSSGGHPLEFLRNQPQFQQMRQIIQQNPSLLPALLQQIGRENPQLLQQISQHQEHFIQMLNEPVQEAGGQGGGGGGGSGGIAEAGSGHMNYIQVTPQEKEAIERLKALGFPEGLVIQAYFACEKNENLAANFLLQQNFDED

[2] = biological target: T1, FLAG-XPC/RAD23B-His complex; assay: pull-down; FLAG-XPC/RAD23B-His immobilised on anti-FLAG magnetic beads, incubated with centrin-2 (WT or C domain, GST removed), extensive washing, elution with FLAG peptide; reconstituted heterotrimers; conditions: both partners purified
[3] = biological target: T1, FLAG-XPC/RAD23B-His complex; assay: cell-based or functional assay
FLAG-XPA = biological target: T2, FLAG-XPA (human, UniProt P23025 1-273); assay: pull-down; FLAG-XPA (0.5 µg) immobilised on anti-DDDDK-tag magnetic beads; centrin-2 in buffer B, on ice 1 h; elution with FLAG peptide; immunoblot; no XPC/RAD23B; conditions: both partners purified
T2 construct: XPA protein, human; also called purified recombinant XPA
T2 sequence (P23025 whole entry): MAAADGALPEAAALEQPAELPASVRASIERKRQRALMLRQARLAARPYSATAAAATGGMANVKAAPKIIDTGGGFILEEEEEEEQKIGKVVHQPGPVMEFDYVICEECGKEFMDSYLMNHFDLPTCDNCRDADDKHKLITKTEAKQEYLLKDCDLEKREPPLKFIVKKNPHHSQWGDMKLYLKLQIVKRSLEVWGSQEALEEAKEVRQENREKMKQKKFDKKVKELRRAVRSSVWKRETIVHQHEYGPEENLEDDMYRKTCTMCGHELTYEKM

B1: GST-centrin-2 C domain (domain or fragment, human, UniProt P41208 94-172, looked up)
chain: TQKMSEKDTKEEILKAFKLFDDDETGKISFKNLKRVAKELGENLTDEELQEMIDEADRDGDGEVSEQEFLRIMKKTSLY
notes: centrin-2, human, carboxyl-terminal (C) domain, residues 94-172; source: E. coli BL21 (DE3), purified (GSTrap FF, HiTrap Phenyl FF); not shown: GST, N-terminal, kept
B1: binds [1].

B2: centrin-2 C domain, detached from the GST tag (domain or fragment, human, UniProt P41208 94-172, looked up)
chain: B1 chain
notes: centrin-2, human, carboxyl-terminal (C) domain, residues 94-172; also called the C domain alone; source: E. coli BL21 (DE3), purified (GSTrap FF, HiTrap Phenyl FF), GST removed with PreScission protease; not shown: GST, N-terminal, cleaved
B2: binds [2].

B3: centrin-2 (WT), detached from the GST tag (natural protein, human, UniProt P41208 1-172, looked up)
chain: MASNFKKANMASSSQRKRMSPKPELTEEQKQEIREAFDLFDADGTGTIDVKELKVAMRALGFEPKKEEIKKMISEIDKEGTGKMNFGDFLTVMTQKMSEKDTKEEILKAFKLFDDDETGKISFKNLKRVAKELGENLTDEELQEMIDEADRDGDGEVSEQEFLRIMKKTSLY
notes: centrin-2, human, wild type; also called WT centrin-2; full-length protein; source: E. coli BL21 (DE3), purified (GSTrap FF, HiTrap Phenyl FF), GST removed with PreScission protease; not shown: GST, N-terminal, cleaved
B3 was tested, and the “EMSA: enhancement of the binding of XPC/RAD23B to a 180 bp DNA with a 6-4PP by centrin-2 (WT)” value [3] was roughly 2 fold and the binding result (FLAG-XPA) was “binds”.

B4: centrin-2 M4 mutant, recombinant (natural protein, human, UniProt P41208 1-172, looked up)
chain: B3 chain with L112A, F113A, L133A, M145A
notes: centrin-2, human, point mutant M4 of the WT protein (intact N domain); also called M4 mutant of centrin-2; source: E. coli BL21 (DE3), purified (GSTrap FF, HiTrap Phenyl FF)
B4: binds (FLAG-XPA).
